Results: publication PMC11667159 (The Journal of Biological Chemistry, 2024)
Changes are numbered by the printed parent chain. Names and notes keep the numbering of the source.

T1: VC1 domain of human RAGE (receptor for advanced glycation end products), biotinylated (human, UniProt Q15109 23-226, biotin (EZ-Link Sulfo-NHS-Biotin))
T1 chain: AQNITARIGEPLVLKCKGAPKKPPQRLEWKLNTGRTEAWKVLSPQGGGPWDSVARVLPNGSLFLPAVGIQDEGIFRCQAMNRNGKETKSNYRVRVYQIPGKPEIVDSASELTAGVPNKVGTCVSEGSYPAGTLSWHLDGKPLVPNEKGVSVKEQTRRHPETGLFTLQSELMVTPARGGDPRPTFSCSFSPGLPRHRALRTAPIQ

B1: Nb13 (VHH)
VHH: QVQLVESGGGLVQPGGSLMLSCAASGFDFATYPMSWVRQAPGKEPEWIASIFPNGVTQSCADSVLGRFTISRDNTKNTLFLEMDRLKLADTAVYYCSKGGAAQSMFDDYWGQGTQVTVSS
B2: Nb8 (VHH)
VHH: QVQLVESGGGLVQAGGSLRLACVTSGNIFSISFMRWYRQAPGKQRELVATITSGDRTTYADSVKGRFTISRDNAKNTVYLQMNSLEPEDTAVYYCDINGLRYAGIRSWGQGTQVTVSS
B3: Nb11 (VHH)
VHH: QVQLVESGGGLVQAGGSLRLSCAASASIGIFTVRWWRQAPGKQRALEQRELVAGISGGGTTNFADSVKGRFTISRDNDKKMVYLEMNNLKPEDTAVYYCNYLNSWGQGTQVTVSS
B4: Nb6 (VHH)
VHH: QVQLVESGGGLVQAGGSLRLSCAASGNILRLNAMAWYRQAPGKQRELVAYITYKGPTNYAESVKGRFTISRDMAKNTVYLQMNSLKPEDTAAYYCNADYIRTPGPFWGQGTQVTVSS
B5: Nb7 (VHH)
VHH: B4 VHH with Y50D, I51N, Y53F, E61D, P105H
B6: Nb5 (VHH)
VHH: QVQLVESGGGLVQAGGSQRLSCTASGRIFSINDMGWYRQAPGDQRELVAVITSGGATNYTDSVKGRFTISRDDAKNTVYLQMNSLKPEDTAVYYCNADLRTSLKWPPVFHRYWGQGTQVTVSS
B7: Nb2 (VHH)
VHH: QVQLVESGGGWVQAGGSLRLSCTASGSGFGIFAINWFRQAPGKERELVASLSSIGSPKYAESVKGRFTISRDNAKNTVYLQMNSLKPEDTAVYYCNYLNRWGQGTQVTVSS
B8: Nb9 (VHH)
VHH: QVQLVESGGGLVQAGESLRLSCAASGAVFRIFAVNWWRQAPGKQRELVATITSAGDTKYHDSVKGRFTISRDNAKNTVALQMNNLKPEDTAVYQCNVLKYWGQGTQVTVSS
B9: Nb10 (VHH)
VHH: B8 VHH with N73I
B10: Nb3 (VHH)
VHH: QVQLVESGGGLVQAGRSLRLSCAASGRSFSIFAVNWWRQAPGNQRELVASITGGGSIRYADSVKGRFTISRDNAENTVYLQMNSLKPEDTAVYYCNTLNFWGQGTQVTVSS
B11: Nb4 (VHH)
VHH: B10 VHH with A33G, W37F, G42E, K64T, T97I
B12: Nb27 (VHH)
VHH: QVQLVESGGGLVQAGGSLKLSCAAPGWTVSISYMGWFRQAQGKEREFVGAMSWSDDRISYADSVKGRFTISRDNAKTTVFLQMTSLKPEDTAVYYCAVRRKWSESYDYWGQGTQVTVSS
B13: Nb14 (VHH)
VHH: QVQLVESGGGLVQAGDSLRLSCAASARTFSIHAMGWFRQAPGKEREFVAAIGWTGGSPDYSDSAKGRFAISRDNAKNTVFLQMNSLKPEDTAVYYCAFHRAGSYDSTTSYDYWGQGTQVTVSS
B14: Nb24 (VHH)
VHH: QVQLVESGGGLVQDGGSLRLSCAASGLTFSSLPMGWFRQAPGKEREFVAAMNWGEISTYYADSVKGRFTISRDNGKKTVYLQMNSLKPEDTAVYTCAADLRYSNLKYSRAGYWGQGTQVTVSS
B15: Nb21 (VHH)
VHH: QVQLVESGGGLVQAGDSLRLSCAASGRTFSNYGIGWFRQAPGKEREFVARVAWSTAITKYADAVKGRFTISRDNAKNMVYLQMNSLKPEDTAVYYCAAGKYGTAWITISGYDFWGQGTQVTVSS
B16: Nb19 (VHH)
VHH: QVQLVESGGGLVQAGGSLRLSCAASGRTFSSYKMGWFRQAPGKEREFVAAFSWTGLNTNYADSVKGRFTISRDNAKSTVYLQMNSLKPEDTAVYYCAAGLGRTVIAGVDYWGQGTQVTVSS
B17: Nb20 (VHH)
VHH: QVQLVESGGGLVQAGASLRLSCAASGRTFSSNYMGWFRQAPGKEREFVGAISWTSGSTSYADSVKGRFTISRDKAKNTVDLQMNSLNPDDTAVYYCAAGPSHRLWFSGRTLATYYDYWGQGTQVTVSS
B18: Nb28 (VHH)
VHH: QVQLVESGGGLVQTGGSLNLSCAPFGTVLSDNDVGWYRQAPGSQRELVAEVDVRGGTNYADSVKGRFTISRDSAKKITFLQMNSLKSEDTAVYYCASDYGLGLLVGLPEYRGQGTQVTVSS
B19: Nb25 (VHH)
VHH: QVQLVESGGGLVQPGGSLRLSCTVSGIILGSRAMGWYRQTPGKQREFVATISTSGGTTNYADSVKGRFTISRDNAKNTVYLQMNSLKPEDTAIYYCNTLSQVLADRGWGQGTQVTVSS
B20: Nb26 (VHH)
VHH: B19 VHH with Q13R, I28M, L29F, E46D, N74S, I93V, L99V, Q101A, A104L
B21: Nb22 (VHH)
VHH: QVQLVESGGGLVQPGGSLRLSCAASGTSFSTNVMGWYRQAPGKQRELVARILGGSSTYYADSVKGRFTISRDNDKNTLYLQMNSLKPEDTAVYYCTAGFGPGYWGQGTQVTVSS
B22: Nb23 (VHH)
VHH: B21 VHH with I51M, D74A, L78V, T96A
B23: Nb16 (VHH)
VHH: QVQLVESGGGLVQAGGSLRLSCAASGRTVSSKAMGWYRQAPGKQRELVASISTSGSTTVYADSVKGRFTISRDNAKATVYLRMNMLKPEDTAVYYCNYLVGPIDWGQGTQVTVSS
B24: Nb17 (VHH)
VHH: B23 VHH with V59N, K76E, T78P, R82Q, E89G, I103A
B25: Nb15 (VHH)
VHH: QVQLVESGGGLVQAGGSLRLSCVASGILFSNNPMAWYRGAPGKQRELVARIWSGGRTIYGDSLKGRVTISRDNAKNTVYLQMNSLQPEDTAVYYCNSPYTNGWGQGTQVTVSS
B26: tetrameric S100B (human, recombinant) (natural protein)
chain: MSELEKAMVALIDVFHQYSGREGDKHKLKKSELKELINNELSHFLEEIKEQEVVDKVMETLDNDGDGECDFQEFMAFVAMVTTACHEFFEHE
notes: S100B, human, isolated as the tetramer (association of two homodimers); also called S100B-4mer; S100B tetramer; source: E. coli (BL21(DE3) E. Cloni EXPRESS), purified
B27: dimeric S100B (human, recombinant) (natural protein)
chain: B26 chain

These binders were tested against tetrameric S100B (human, recombinant) (human, UniProt P04271) (assay: not given). Settings: not given.
B1: binds. B2: binds. B3: binds. B4: binds. B5: binds. B6: binds. B7: binds. B8: binds. B9: binds. B10: binds. B11: binds.

What follows are binders tested against dimeric S100B (human, recombinant) (Homo sapiens, UniProt P04271) (assay: not given). Settings: not given.
B12: binds. B13: binds. B14: binds. B15: binds. B16: binds. B17: binds. B18: binds. B19: binds. B20: binds. B21: binds. B22: binds. B23: binds. B24: binds. B25: binds.

These binders were tested against T2, VC1 domain of human RAGE (receptor for advanced glycation end products), biotinylated (human, UniProt Q15109 23-226, biotin (EZ-Link Sulfo-NHS-Biotin)) (assay: BLI; competition: biotinylated RAGE-VC1 on streptavidin biosensor; S100B tetramer 50-750 nM previously incubated with a twofold excess of Nb; 25 °C; PBS, 0.1% BSA, 0.05% Tween-20, 1.1 mM CaCl2; global 1:1 fit). Settings: both partners purified.
T2 construct: RAGE, human, V and C1 immunoglobulin-like domains; also called RAGE-VC1; VC1 RAGE; source: E. coli Rosetta-gami B (DE3), purified
With B26 the “fold increase of KD after incubation with Nb1, against S100B-4mer alone” value was 3 fold and the “fold increase of KD after incubation with Nb18, against S100B-4mer alone” value was 2.4 fold.

Target: T1, VC1 domain of human RAGE (receptor for …)
Assay: BLI; in the presence of twofold excess Nb18
Settings: not given
A Kd of 70 nM was found for B26 in this work.

What follows are binders tested against anti-S100B nanobody Nb12 (llama) (assay: BLI; Nbs (20 μg/ml) loaded on Ni-NTA biosensor; S100B dimer or tetramer 25-250 nM in solution; 25 °C; 50 mM Tris-HCl pH 7.4, 150 mM NaCl; global 1:1 fit). Settings: not given.
Sequence of anti-S100B nanobody Nb12 (llama) (heavy, as listed by the source): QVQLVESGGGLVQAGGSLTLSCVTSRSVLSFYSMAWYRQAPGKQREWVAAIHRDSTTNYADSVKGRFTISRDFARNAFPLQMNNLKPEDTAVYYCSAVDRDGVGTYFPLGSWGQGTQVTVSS
A Kd of 4000 nM was found for B27 in this work. A Kd of 800 nM was found for B26 in this work.

Target: T1, VC1 domain of human RAGE (receptor for …)
Assay: BLI; in the presence of twofold excess Nb1
Settings: not given
A Kd of 89 nM was found for B26 in this work.

The binders below were run against T2, VC1 domain of human RAGE (receptor for …) (assay: BLI; biotinylated RAGE-VC1 (25 μg/ml) loaded on streptavidin biosensor; S100B tetramer 50-750 nM in solution (controls: Nbs alone); 25 °C; PBS, 0.1% BSA, 0.05% Tween-20, 1.1 mM CaCl2; global 1:1 fit). Settings: both partners purified.
A Kd of roughly 29 nM was found for B26 in this work.
